For 1 substance, fold lower band intensity in MT pellets than the T758A/T762A mutant results are on record in publication PMC4196864.

This assay deals with paclitaxel-stabilized microtubules assembled from purified porcine brain tubulin (porcine) (UniProt P02550). Nature of the assay: co-sedimentation.

Turning to “6xHis/mCherry-tagged XMAP4 phosphomimetic mutant (T758E/T762E) (natural protein)”, the fold lower band intensity in MT pellets than the T758A/T762A mutant worked out at 1.4 fold.
